We go through six substances from paper doi:10.1101/173674.

Holding throughout (assay): crystal structure
The target of experiment [1] is HpiC1 F138S (Fischerella sp. ATCC 43239).
The target in experiment [2] is HpiC1 W73M/K132M selenomethionine derivative (Fischerella sp. ATCC 43239).
Experiment [3] addresses HpiC1 Y101F (Fischerella sp. ATCC 43239).
In experiment [4] the target is HpiC1 Y101F/F138S (Fischerella sp. ATCC 43239).
The target in experiment [5] is HpiC1 Y101S (Fischerella sp. ATCC 43239).
Experiment [6] has as its target HpiC1 native (Fischerella sp. ATCC 43239).

With HpiC1 F138S (enzyme), in experiment [1], the stoichiometry N came to 2. As to “HpiC1 W73M/K132M selenomethionine derivative (enzyme)”, in experiment [2], the stoichiometry N came out at 2. HpiC1 Y101F (enzyme): the stoichiometry N in experiment [3] was 2. On to HpiC1 Y101F/F138S (enzyme), for which the stoichiometry N in experiment [4] came out at 2. In turn, HpiC1 Y101S (enzyme) came in with a stoichiometry N in experiment [5] of 2. In experiment [6], HpiC1 native (enzyme) returned a stoichiometry N of 2.

Broadly, the stoichiometry N is the number of molecules, sites or subunits per partner or assembly.
